{"source": "paper PMC3037360", "key": {"[1]": {"target": "CFP-p7 (Cerulean fluorescent protein fused to the N-terminus of HCV p7) (hepatitis C virus (strain not stated)) (UniProt P27958)", "test": "FRET or BRET"}, "[2]": {"target": "CFP-E2TM (CFP in fusion with the transmembrane domain of HCV E2, H strain) (hepatitis C virus (H strain))", "test": "FRET or BRET"}}, "data": [{"substance": "YFP-NS2 (Venus yellow fluorescent protein fused to the N-terminus of HCV NS2) (from UniProt P27958 810-1026) (natural protein)", "values": [{"measurement": "mean lifetime of the donor protein", "setting": "[1]", "result": 2.34, "unit": "ns"}]}, {"substance": "YFP-E1TM (YFP in fusion with the transmembrane domain of HCV E1, H strain) (domain or fragment)", "values": [{"measurement": "mean lifetime of the donor protein", "setting": "[2]", "result": 2.35, "unit": "ns"}]}]}
